# Test results: the supplement of paper PMC9732359
# ± gives the uncertainty stated by the source.
# Test: protein stability index of a GFP-peptide fusion (yeast GPS) (PSI 1-4); higher = more stable; sorted into four equal gates, so the index is relative within each strain
# In short: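 Peptides tiling yeast proteins in 17-residue segments were fused downstream of GFP, with Cherry expressed from the same plasmid. As a pooled library in yeast, mid-log cultures grown in leucine-free medium were sorted into four equal gates by GFP/Cherry fluorescence ratio. Gate plasmids were PCR-amplified and Illumina-sequenced, and barcodes linked reads to strains. Each peptide received a protein stability index equal to the sum of each gate's read frequency times its gate number.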
Sequence,protein stability index (doa10∆),protein stability index (pdr5∆),protein stability index (san1∆),protein stability index (ubr1∆)
NLLESITKLLEINLSKI [YCS4],2.73 ± 0.057,2.55 ± 0.043,2.94 ± 0.036,2.77 ± 0.034
PLPLDLNVQVWHIEETG [ITC1],1.87 ± 0.063,2.17 ± 0.059,2.18 ± 0.089,2.17 ± 0.071
DKKSCSVDDVLSALDHI [DPB4],3.29 ± 0.086,3.23 ± 0.089,3.31 ± 0.054,3.22 ± 0.044
PTGPKTAIDKNGNITYS [FAS2],2.9 ± 0.061,3.08 ± 0.057,3 ± 0.059,2.91 ± 0.057
QLIPIILRQRGPGFKFV [SRB4],2.55 ± 0.11,1.65 ± 0.073,1.47 ± 0.19,1.69 ± 0.078
IAAKLINSGLYSVLLES [YML103C/NUP188],2.54 ± 0.099,2.08 ± 0.099,2.7 ± 0.076,2.67 ± 0.095
KNHTHNLPGNITVVLGV [RRP4],2.3 ± 0.14,2.68 ± 0.084,2.32 ± 0.17,2.66 ± 0.078
KENEESLTPTQSDSAKV [PRP28],3.13 ± 0.088,3.35 ± 0.063,2.9 ± 0.095,3.11 ± 0.053
TDPKELYNNAHVYARDL [RPC40],3.51 ± 0.23,2.94 ± 0.11,2.93 ± 0.13,–
FQLVNDVMDELITSSAR [SIR3],3.36 ± 0.14,2.9 ± 0.087,3.42 ± 0.068,3.23 ± 0.071
GGHSLEEISFSLSEGCD [PRP28],2.17 ± 0.11,2.42 ± 0.067,1.93 ± 0.13,2.25 ± 0.094
LIVIDVVEGVTFVVEQL [SNU114],1.57 ± 0.044,1.92 ± 0.061,2.56 ± 0.082,2.92 ± 0.04
QIAAQSPVELSRMFEEV [SMC1],3.19 ± 0.14,3.2 ± 0.079,3.14 ± 0.058,3.27 ± 0.075
PSQSEEQKGQMAKKEGT [MED4],3.21 ± 0.2,3 ± 0.22,3.07 ± 0.19,–
FGAKPDENKASATSKPA [YJL041W/NSP1],2.59 ± 0.066,2.87 ± 0.052,2.56 ± 0.057,2.74 ± 0.052
NLENHFKKSKIDHINEE [SCL1],2.74 ± 0.072,3.16 ± 0.075,2.64 ± 0.065,2.58 ± 0.047
VMTYKGEVLGITRFGLS [RPO31],3.37 ± 0.16,–,3.09 ± 0.12,3.46 ± 0.29
IYDDWLDRISSYTAFSR [PRP8],2.16 ± 0.05,1.75 ± 0.044,1.92 ± 0.073,2.24 ± 0.039
IHYSWSFILYYRRALQS [YML103C/NUP188],1.48 ± 0.064,1.09 ± 0.042,1.26 ± 0.11,1.12 ± 0.082
RVNGSEFVHKYLGEGPR [RPT3],2.45 ± 0.057,2.88 ± 0.063,2.79 ± 0.056,3 ± 0.061
NENNSNGGEDTSVENEG [REC8],3.31 ± 0.14,3.44 ± 0.14,3.05 ± 0.15,3.07 ± 0.089
EKENRFEIVDREKNSLE [SMC4],2.63 ± 0.09,2.93 ± 0.11,3.1 ± 0.1,3.3 ± 0.085
LNFYITNVPKAKKRKTL [SIR3],1.97 ± 0.12,1.86 ± 0.093,1.63 ± 0.12,1.86 ± 0.071
RRKKILNEIELDNLKLK [GRR1],3.04 ± 0.11,3.04 ± 0.086,2.76 ± 0.093,2.87 ± 0.068
QLGLQTVIRGNSIISLE [SMX2],2.22 ± 0.093,2.57 ± 0.077,2.47 ± 0.07,2.25 ± 0.058
PVEKVKEHDEIEEQGDA [DPB4],3.19 ± 0.095,3.34 ± 0.12,–,3.5 ± 0.11
DSALRYSILGDRFKYRS [POP4],3.27 ± 0.18,3.04 ± 0.23,3.23 ± 0.098,–
